Earlier results in paper PMC6524963.
pKd: −log10 of the molar value. Like-named read-outs stand apart in the source and are kept apart here.

Tests used:
Ran (Homo sapiens) [1] = biological target: Ran (Homo sapiens) (UniProt P62826)
Ran (Homo sapiens) [2] = biological target: Ran (Homo sapiens) (UniProt P62826); remark: listed apart in the source

With “RanBP1/RanBP2 RBD RBD (from UniProt P43487)” as the substance, how does the pKd (Ran (Homo sapiens) [1]) read?
Its pKd is 9.00.

What about the pKd (Ran (Homo sapiens) [2]) of the same substance?
The pKd was 5.00.
